For data set [1], the system named is CD133-negative cell surface (HEK293T or T98G; no CD133) (Homo sapiens). Nature of the data set: flow. Conditions: 2'-F pyrimidines, 3'-inverted dT, 37 C.
The target in data set [2] is T1, CD133 (prominin-1) (Homo sapiens, UniProt O43490 O43490:20-865).
T1 sequence: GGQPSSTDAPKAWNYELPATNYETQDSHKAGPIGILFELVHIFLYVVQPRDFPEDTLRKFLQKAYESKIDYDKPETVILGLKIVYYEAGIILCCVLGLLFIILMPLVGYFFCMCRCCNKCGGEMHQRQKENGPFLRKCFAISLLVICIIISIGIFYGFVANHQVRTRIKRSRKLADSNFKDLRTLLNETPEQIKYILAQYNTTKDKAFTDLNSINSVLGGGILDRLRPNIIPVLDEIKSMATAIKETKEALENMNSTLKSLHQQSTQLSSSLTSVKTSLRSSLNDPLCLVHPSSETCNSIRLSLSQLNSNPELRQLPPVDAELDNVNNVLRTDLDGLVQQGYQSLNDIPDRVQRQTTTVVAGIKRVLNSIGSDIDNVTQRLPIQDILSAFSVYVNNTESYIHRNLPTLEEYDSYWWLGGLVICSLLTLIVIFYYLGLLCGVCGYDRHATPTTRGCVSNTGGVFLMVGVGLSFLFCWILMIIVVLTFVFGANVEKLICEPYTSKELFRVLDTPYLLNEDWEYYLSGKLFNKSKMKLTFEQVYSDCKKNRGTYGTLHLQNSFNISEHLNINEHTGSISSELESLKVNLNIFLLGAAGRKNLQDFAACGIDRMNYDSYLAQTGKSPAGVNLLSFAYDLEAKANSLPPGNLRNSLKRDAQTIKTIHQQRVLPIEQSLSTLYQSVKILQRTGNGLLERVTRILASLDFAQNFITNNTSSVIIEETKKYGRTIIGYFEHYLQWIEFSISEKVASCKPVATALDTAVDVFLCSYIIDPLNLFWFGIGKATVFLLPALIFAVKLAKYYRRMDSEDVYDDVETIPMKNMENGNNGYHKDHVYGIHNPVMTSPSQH
Nature of the data set: flow; HT-29 cells; 37 C 30 min, DPBS + MgCl2, tRNA, salmon sperm DNA. Conditions: tags: endogenous CD133 on CD133-positive HT-29 or Hep3B cells (ATCC); label: 5'-DY647. From the text:
(§1) CCCTCCTACATAGGGAGGAACGAGTTACTATAG -3′, and antisense oligonucleotide, 5′-CTATAGTAACTCGTTCCTCCCTATGTAGGAGGGTGGGTTGAGCGTTTATTCTTGTCTC -3′; CD133-1-2 (2nd truncation) was derived from a sense oligonucleotide: 5′-TAATACGACTCACTATAGCTCAACCCACCCTCCTACATAGGGAGGAACGAGT-3′and an antisense oligonucleotide, 5′-ACTCGTTCCTCCCTATGTAGGAGGGTGGGTTGAGC -3′; CD133-1-2-1 (3rd Truncation) was derived from a sense oligonucleotide, 5′-TAATACGACTCACTATACCACCCTCCTACATAGGGTGG-3′ and an antisense oligonucleotide, 5′-CCACCCTATGTAGGAGGGTGG-3′; and CD133-1-2-2 (4th Truncation) was derived from a sense oligonucleotide, TAATACGACTCACTATACCCTCCTACATAGGG-3′ and an antisense oligonucleotide, 5′-CCC TAT GTA GGA GGG-3′. CD133-2-1 (1st Truncation) was derived from a sense oligonucleotide 5′-TAATACGACTCACTATACAGAACGTATACTATTCTG-3′ and an antisense oligonucleotide, 5′-CAG AAT AGT ATA CGT TCT G-3′ (T7 RNA promoter sequence is underlined). […] The binding affinities of these two aptamers and a negative control aptamer was determined using CD133 positive (HT-29 and Hep3B) and CD133 negative cell lines (T98G and HEK293T). […]

In data set [3] the target is T1, CD133 (prominin-1). Nature of the data set: flow; Hep3B cells; 37 C 30 min, DPBS + MgCl2. The settings on record: tags: endogenous CD133 on CD133-positive HT-29 or Hep3B cells (ATCC); label: 5'-DY647.
Excerpt: as §1

Data set [4] has as its target T1, CD133 (prominin-1). Kind of data set: flow; HT-29 cells; 37 C 30 min, DPBS + MgCl2. Conditions: tags: endogenous CD133 on CD133-positive HT-29 or Hep3B cells (ATCC); label: 5'-DY647.
Excerpt: as §1

In the case of CAGAACGUAUACUAUUCUG [CD133-2-1], the Kd came to 1740 µM in data set [1] (CD133-negative HEK293T cells) and 4.76 µM in data set [1] (CD133-negative T98G cells).
On the same counts, the results for CCCUCCUACAUAGGG [CD133-1-2-2] are 120 µM and 275 µM.

B1: CD133-1-2-2 (ssRNA)
RNA: CCCUCCUACAUAGGG
modifications: 2'-F pyrimidines; 3'-inverted dT
Consider B1, for which the dissociation constant (Kd) was 0.082 µM with CD133 (prominin-1) [2] and 0.032 µM with CD133 (prominin-1) [3].

B2: CD133-2-1 (ssRNA)
RNA: CAGAACGUAUACUAUUCUG
modifications: 2'-F pyrimidines; 3'-inverted dT
With B2, the dissociation constant Kd is 0.052 µM with CD133 (prominin-1) [3] and 0.145 µM in the data set with CD133 (prominin-1) [4].
